The RNAGym collection of RNA variant scans (doi:10.1073/pnas.2313332121)
This sample holds only a part of the variants without activity.

B1: TPR 5TU (parent)
chain: GGAUCUUCUCGAUCUAACAAAAAAGACAAAUCUGCCACAAAGCUUGAGAGCAUCUUCGGAUGCAGAGGCGGCAGCCUUCGGUGGCGCGAUAGCGCCAACGUUCUCAACUAUGACACGCAAAACGCGUGCUCCGUUGAAUGGAGUUUAUCAUG

Variants of: B1
Experiment: polymerase ribozyme fitness, log enrichment relative to wild type (log ratio); higher = more active; in vitro selection for triplet polymerase activity
Procedure, shortened: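 For each subunit of a heterodimeric triplet polymerase ribozyme, a mutant library was built by PCR and transcribed, then taken through a single in vitro selection round in triplicate. Selection involved annealing to a biotinylated primer, the partner subunit and triplets, incubation frozen at −7 °C, gel excision of extended constructs, capture on streptavidin beads and RT-PCR. Genotypes were retained after Illumina sequencing of inputs and outputs only with ≥10 input reads and ≥1 read in each output. Fitness is defined as the logarithm of a genotype's enrichment relative to wild-type enrichment, using inverse-variance-weighted averages across replicates, with the logarithm taken to base 2.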

Variant	polymerase ribozyme fitness (log ratio)
GGAUCUUCUCGAUCUAACAAAAAAGACAAAUCUGCCACAAAGCUUGAGAGCAUCGUAGGAUCCAGAGGCGGCAGCCUUUGGUGGCGCGAUAGCGCCAACGUUCUCAACGAUGACACGCAAAACGCGUGCUCCGUUGAAUGGAGUUUAUCAUG	≤ -4.2
GGAUCUUCUCGAUCUAACAAAAAAGACAAAUCUGCCACAAAGCUUGAGAGCAUCGUCGGAUGCAGAGGCGGCAGCCUUCGGUGGCGCGAUAGCGCCAACGUUCUCAACUAUGACACGCAAAACGCGUGCUACGUUGAAUGGAGUUUAUCAUG	-2.39
GGAUCUUCUCGAUCUAACAAAAAAGACAAAUCUGCCACAAAGCUUGAGAGCAUCGUCGGAUGCAGAGGCGGCAGCCUUCGGUGGCGCGAUAGCGCCAACGUUCUCAACUAUGACACGCAAAACGGGUGCUCCGUUGAAUGGAGUUUAUCAGG	≤ -4.2
GGAUCUUCUCGAUCUAACAAAAAAGACAAAUCUGCCACAAAGCUUGAGAGCAUCGUCGGAUGCAGAGGCGGCAGCCUUGGGUGGCGCGAUAGCGCCAACGUUCUCAACUAUGACACGCAAAACGCGUGCUCCGUUGAAUGGAGUUUAUCAUG	-3.78
GGAUCUUCUCGAUCUAACAAAAAAGACAAAUCUGCCACAAAGCUUGAGAGCAUCGUCGGAUGCAGAGGCGGCAGCCUUCGGUGGCGCGAUAGCGCUAACGUUCUCAACUAUGACACGCAAAACGCGUGCUCCGUUGAAUGGAGUUUAUCAUG	-0.6
GGAUCUUCUCGAUCUAACAAAAAAGACAAAUCUGCCACAAAGCUUGAGAGCAUCGUCGGAUGCAGAGGCGGCAGCCUUCGGUGGAGCGAUAGCGCCAAUGUUCUCAACUAUGACACGCAAAACGCGUGCUCCGUUAAAUGGAGUUUAUCAUG	-3.43
GGAUCUUCUCGAUCUAACAAAAAAGACAAAUCUGCCACAAAGCUUGAGAGCAUCGUCGGAUGCAGAGGCGGCAGCCUUCGGUGGCGCGAUAGUGCCAACGUUCUCAACUAUGACAUGCAAAACGCGUGCUCCGUUGAAUGAAGGUUAUCAUG	-2.63
GGAUCUUCUCGAUCUAACAAAAAAGACAAAUCUGCCACAAAGCUUGAGAGCAUCGUCGGAUGCAGAGGCGGCAGCCUUCGGUGGCGCGAUAGCGCCAACGUUAUCAACUAUGACACGCAAAACGCGUGCUCCGUUGAAUGGAGUUUAUCAUG	-2.99
GGAUCUUCUCGAUCUAACAAAAAAGACAAAUCUGCCACAAAGCUUGAGAGCAUCGUCGGAUGAAGAGGCGGCAGCCUUCGGUGGCGCGAUAGCGCCAACGUUCUCAACUAUGACACGCAAAACGCGUGCUCCGGUGAAUGGAGUUUAUCAUG	-3.01
GGAUCUUCUCGAUCUAACAAAAAAGACAAAUCUGCCACAAAGCUUGAGAGCAUCGUCGGAUGCAGAGGCGGCAGCCUUCGGUGGCGCGAUAGCGCUAACGUUCUUAACUAUGACACGCAAAACGCGUGCUCCGUUGAAUGGAAUUUAUCAUG	-0.651
GGAUCUUCUCGAUCUAACAAAAAAGACAAAUCUGCCACAAAGCUUGAGAGCAUCGUCGGAUGCAGAGGCGGCAGCCUUCGGUGGGGCUAUAUCGCCAACGUUCUCAAUUAUGACACGCAAAACGCGUGCUCCGUUGAAUGGAGUUUAUCAUG	≤ -4.2
GGAUCUUCUCGAUCUAACAAAAAAGACAAAUCUGCCACAAAGCUUGAGAGCAUCGUCGGAUGCAGAGGCGGCAGCAUUCGGUGGCGCGAUAACGCCAACGUUCUCAAUUAUGACACGCAAAACGCGUGCUCCGUUGAAUGGAGUUUAUCAUG	≤ -4.2
GGAUCUUCUCGAUCUAACAAAAAAGACAAAUCUGCCACAAAGCUUGAGAGCAUCGUCGGAUGCAGAGGCGGCAGCCUUCGGUGGCGCGAUAGCGCCAACGUUCUCAACUAUGACAGGCAAAACGCGUGCUCCGUUGAAUGGAGUUUAUCAUG	0.357
GGAUCUUCUCGAUCUAACAAAAAAGACAAAUCUGCCACAAAGCUUGAGAGCAUCGUCGGAUGCAGAGGCGGCAGCCUUCGGUGGCGAGAUAGCGCCAACGUUCUCAACUAUGACACGCAAAACGCGUGCUCCGUUGAAUGGAGUUUAUCAUG	-4.1
GGAUCUUCUCGAUCUAACAAAAAAGACAAAUCUGCCACAAAGCUUGAGAGCAUCGUCGGAUGCAGAGGAGGCAGCCUUCGGUGGCGUGAUAGCGCCAACGUUCUAAACUAUGACACGCAAAACGCGUGCUCCGUUGAUUGGAGUUUAUCAUG	≤ -4.2
GGAUCUUCUCGAUCUAACAAAAAAGACAAAUCUGCCACAAAGCUUGAGAGCAUCGUCGGAUGCAGAGGCGGCAGCCUUCGGUGGCGCGAUAGCGCAAACGUUCUCAACGAUGACACGCAAAACGCGUGCUCCGUUGAAUGGAAUUUAUCAUG	-3.3
GGAUCUUCUCGAUCUAACAAAAAAGACAAAUCUGCCACAAAGCUUGAGAGCAUCGUCGGAUGCAGAGGCGGCAGCCUUCGGUGGUGCGAUGGCACCAACGUUCUCAACUAUGACACGCAAAACGCGUGCUCCGUUGAAUGGAGUUUAUCAUG	-3.29
GGAUCUUCUCGAUCUAACAAAAAAGACAAAUCUGCCACAAAGCUUGAGAGCAUCGUCGGAUGCAGAGGUGUCAGCCUUCGGUGGCGCGAUAGCGCCAACGUUCUCAACUAUGACACGCAAAACGCGUACUCCGUUGAAUGGAGUUUAUCAUG	≤ -4.2
GGAUCUUCUCGAUCUAACAAAAAAGACAAAUCUGCCACAAAGCUUGAGAGCAUCGUCGGAUGCAGAGGCGGCAGCCUUCGGUGGCGUGAUAGCGCCAACGUUCUCAACUAUGACACGCAAAACGCGUGGUCCGUUGAAUGGAGUUUAUCAUG	-3.16
